Patent publication US20120009181A1, “Folate Receptor 1 Antibodies and Immunoconjugates and Uses Thereof” (published 2012)

What was measured:
[1] = target: human folate receptor 1 (FOLR1) (human); experiment: cell-based or functional assay
[2] = target: human folate receptor 1 (FOLR1) (human); experiment: column head 'Apparent affinity (nM)'; method not restated (analyzed as described above: flow cytometry on FOLR1-expressing cells)
[3] = target: human folate receptor 1 (FOLR1) (human); experiment: cell-based or functional assay; remark: listed apart in the source
[4] = target: human folate receptor 1 (FOLR1) (human); experiment: cell-based or functional assay; remark: listed apart in the source

Chain of human folate receptor 1 (FOLR1) (human) (chain, as listed by the source limits assumed): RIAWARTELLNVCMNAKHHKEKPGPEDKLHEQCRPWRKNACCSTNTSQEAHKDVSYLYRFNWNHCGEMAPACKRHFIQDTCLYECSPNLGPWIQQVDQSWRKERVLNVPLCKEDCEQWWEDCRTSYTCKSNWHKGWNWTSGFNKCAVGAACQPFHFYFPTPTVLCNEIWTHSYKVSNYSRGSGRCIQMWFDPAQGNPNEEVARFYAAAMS

Kd [2] | huAb-smcc-DM1 activity on KB in vitro [3] | Binder | other results
 | 0.05 nM | huFR1-48-SMCC-DM1 (antibody, V domains shown, maytansinoid DM1 linked to the antibody through the SMCC linker; drug load and attachment residues not stated) VH: QVQLVQSGAEVAKPGASVKLSCKASGYTFTNYWMQWIKQRPGQGLEWIGAIYPGNGDSRYTQKFQGKATLTADKSSSTAYMQVSSLTSEDSAVYYCARRDGNYAAYWGQGTLVTVSA VL: DIQMTQSPSSLSVSVGERVTITCRASENIYSNLAWYQQKPGKSPKLLVYAATNLADGVPSRFSGSESGTDYSLKINSLQPEDFGSYYCQHFWASPYTFGQGTKLEIKR | 
 | 0.1 nM | huFR1-49-SMCC-DM1 (antibody, V domains shown, maytansinoid DM1 linked to the antibody through the SMCC linker; drug load and attachment residues not stated) VH: QVQLQQSGAVVAKPGASVKMSCKASGYTFTNYWMYWIKQRPGQGLELIGAIYPGNSDTTYNQKFQGKATLTAVTSANTVYMEVSSLTSEDSAVYYCTKRHDYGAMDYWGQGTSVTVSS VL: DIQMTQSPSSLSVSVGERVTITCRASENIYTNLAWYQQKPGKSPKLLVYTASNLADGVPSRFSGSGSGTDYSLKINSLQPEDFGTYYCQHFWVSPYTFGQGTKLEIKR | 
 | 0.1 nM | huFR1-57-SMCC-DM1 (antibody, V domains shown, maytansinoid DM1 linked to the antibody through the SMCC linker; drug load and attachment residues not stated) VH: EVQLVESGGGLVQPGGSRRLSCAASGFTFSSFGMHWVRQAPGKGLEWVAYISSGSSTISYADSVKGRFTISRDNSKKTLLLQMTSLRAEDTAMYYCAREAYGSSMEYWGQGTLVTVSS VL: EIVLTQSPATLSVTPGDRVSLSCRASQNINNNLHWYQQKPGQSPRLLIKYVSQSVSGIPDRFSGSGSGTDFTLSISSVEPEDFGMYFCQQSNSWPHYTFGQGTKLEIKR | 
0.06 nM |  | huMov19 (antibody, V domains shown) VH: QVQLVQSGAEVVKPGASVKISCKASGYTFTGYFMNWVKQSPGQSLEWIGRIHPYDGDTFYNQKFQGKATLTVDKSSNTAHMELLSLTSEDFAVYYCTRYDGSRAMDYWGQGTTVTVSS VL: DIVLTQSPLSLAVSLGQPAIISCKASQSVSFAGTSLMHWYHQKPGQQPRLLIYRASNLEAGVPDRFSGSGSKTDFTLNISPVEAEDAATYYCQQSREYPYTFGGGTKLEIKR | 
 | 0.1 nM | huFR1-65-SMCC-DM1 (antibody, V domains shown, maytansinoid DM1 linked to the antibody through the SMCC linker; drug load and attachment residues not stated) VH: QVQLVQSGAEVAKPGASVKMSCKASGYTFTSYTMHWVKQRPGQGLAWIGYINPISGYTNYNQKFQGKATLTADKSSSTAYMQLNSLTSEDSAVYYCASGGAYGRKPMDYWGQGTSVTVSS VL: EIVMTQSPATMSTSPGDRVSVTCKASQNVGPNVAWYQQKPGQSPRALIYSASYRYSGVPARFTGSGSGTDFTLTISNMQSEDLAEYFCQQYNSYPYTFGQGTKLEIKR | 

Further lines, the binder ahead of its results:

Binder | Kd [2] | huAb-smcc-DM1 activity on KB in vitro [3] | other results
huFR1-21 (antibody, V domains shown) VH: EVQLVESGGDVVKPGGSLKLSCAASGFTFSSYGMSWVRQTPGKGLECVATISSGGSYTYYSPGFQGRFTISRDKSKNTLYLQMSSLKAEDTAMYYCARDGEGGLYAMDYWGQGTSVTVSS VL: DIQMTQSSSSLSVSVGGRVTITCKASDHINNWLAWYQQKPGKAPKLLISGATSLETGVPSRFSGSGSGKDYTLSISSLQPEDVATYYCQQYWSTPFTFGQGTKLEIKR |  |  | EC50 of ADCC activity on IGROV-1 cells [1]: 0.11 ng/mL
huFR1-48 (antibody, V domains shown) VH: QVQLVQSGAEVAKPGASVKLSCKASGYTFTNYWMQWIKQRPGQGLEWIGAIYPGNGDSRYTQKFQGKATLTADKSSSTAYMQVSSLTSEDSAVYYCARRDGNYAAYWGQGTLVTVSA VL: DIQMTQSPSSLSVSVGERVTITCRASENIYSNLAWYQQKPGKSPKLLVYAATNLADGVPSRFSGSESGTDYSLKINSLQPEDFGSYYCQHFWASPYTFGQGTKLEIKR | 0.13 nM |  | 
huFR1-49 (antibody, V domains shown) VH: QVQLQQSGAVVAKPGASVKMSCKASGYTFTNYWMYWIKQRPGQGLELIGAIYPGNSDTTYNQKFQGKATLTAVTSANTVYMEVSSLTSEDSAVYYCTKRHDYGAMDYWGQGTSVTVSS VL: DIQMTQSPSSLSVSVGERVTITCRASENIYTNLAWYQQKPGKSPKLLVYTASNLADGVPSRFSGSGSGTDYSLKINSLQPEDFGTYYCQHFWVSPYTFGQGTKLEIKR | 0.08 nM |  | 
huFR1-57 (antibody, V domains shown) VH: EVQLVESGGGLVQPGGSRRLSCAASGFTFSSFGMHWVRQAPGKGLEWVAYISSGSSTISYADSVKGRFTISRDNSKKTLLLQMTSLRAEDTAMYYCAREAYGSSMEYWGQGTLVTVSS VL: EIVLTQSPATLSVTPGDRVSLSCRASQNINNNLHWYQQKPGQSPRLLIKYVSQSVSGIPDRFSGSGSGTDFTLSISSVEPEDFGMYFCQQSNSWPHYTFGQGTKLEIKR | 0.14 nM |  | 
huMov19-SPP-DM1 (antibody, V domains shown, maytansinoid DM1 linked to the antibody through the SPP linker, 3.5-4 DM1 per antibody; attachment residues not stated) VH: QVQLVQSGAEVVKPGASVKISCKASGYTFTGYFMNWVKQSPGQSLEWIGRIHPYDGDTFYNQKFQGKATLTVDKSSNTAHMELLSLTSEDFAVYYCTRYDGSRAMDYWGQGTTVTVSS VL: DIVLTQSPLSLAVSLGQPAIISCKASQSVSFAGTSLMHWYHQKPGQQPRLLIYRASNLEAGVPDRFSGSGSKTDFTLTISPVEAEDAATYYCQQSREYPYTFGGGTKLEIKR |  |  | IC50, nM (n = 3), Ab-based; in vitro cytotoxicity on IGROV-1 cells [4]: 0.1 nM; IC50, nM (n = 3), Ab-based; in vitro cytotoxicity on JEG-3 cells [4]: 0.2 nM; IC50, nM (n = 3), Ab-based; in vitro cytotoxicity on KB cells [4]: 0.1 nM
huFR1-65 (antibody, V domains shown) VH: QVQLVQSGAEVAKPGASVKMSCKASGYTFTSYTMHWVKQRPGQGLAWIGYINPISGYTNYNQKFQGKATLTADKSSSTAYMQLNSLTSEDSAVYYCASGGAYGRKPMDYWGQGTSVTVSS VL: EIVMTQSPATMSTSPGDRVSVTCKASQNVGPNVAWYQQKPGQSPRALIYSASYRYSGVPARFTGSGSGTDFTLTISNMQSEDLAEYFCQQYNSYPYTFGQGTKLEIKR | 0.15 nM |  | 
